By Kd is commonly meant the equilibrium constant for the complex coming apart.

Series [1] deals with T1, RsdA-His (PFICI_10532), recombinant (Pestalotiopsis fici, UniProt W3WX91 1-730).
T1 construct: RsdA, regulator of secondary metabolism and development, Pestalotiopsis fici, locus PFICI_10532; open reading frame amplified from P. fici cDNA; RsdA-His printed as 80.4 kDa; Printed as RsdA-His; vector pET28a (His6-tag); also called PfRsdA; RsdA-His protein; source: E. coli BL21 (plasmid pYZS42, pET28a), purified (Ni-NTA resin)
T1 sequence (looked up): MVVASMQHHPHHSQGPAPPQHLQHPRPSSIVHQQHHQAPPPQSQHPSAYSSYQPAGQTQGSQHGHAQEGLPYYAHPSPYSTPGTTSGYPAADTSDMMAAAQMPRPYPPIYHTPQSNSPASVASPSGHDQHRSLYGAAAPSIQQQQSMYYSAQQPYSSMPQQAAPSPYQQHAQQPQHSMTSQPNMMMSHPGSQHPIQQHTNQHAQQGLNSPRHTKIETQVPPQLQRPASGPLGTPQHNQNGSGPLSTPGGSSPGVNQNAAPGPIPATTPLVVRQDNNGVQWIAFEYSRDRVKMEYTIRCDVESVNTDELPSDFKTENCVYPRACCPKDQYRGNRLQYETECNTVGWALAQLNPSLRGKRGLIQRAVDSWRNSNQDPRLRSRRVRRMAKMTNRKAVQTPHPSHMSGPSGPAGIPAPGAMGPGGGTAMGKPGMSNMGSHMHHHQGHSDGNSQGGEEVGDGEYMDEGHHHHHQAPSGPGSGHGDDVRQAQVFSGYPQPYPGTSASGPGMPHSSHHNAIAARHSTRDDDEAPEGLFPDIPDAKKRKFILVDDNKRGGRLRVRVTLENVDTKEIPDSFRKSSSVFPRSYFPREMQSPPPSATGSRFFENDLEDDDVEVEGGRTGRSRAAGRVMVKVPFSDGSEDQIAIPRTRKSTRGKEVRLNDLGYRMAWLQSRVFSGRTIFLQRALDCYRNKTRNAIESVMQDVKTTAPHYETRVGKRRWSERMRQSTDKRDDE
As to the kind of experiment: pull-down; His pull-down: RsdA-His (or RsdA^ΔC-terminal-His) held on Ni-NTA resin, purified GST-CsdA or its deletion forms added, overnight at 4 °C; binding buffer 50 mM Tris, 250 mM NaCl, 0.2% glycerol, 5 mM DTT, 0.6% Triton X-100, 1 mM PMSF, pH 7.5; wash with 1% Triton X-100; western blot with anti-His and anti-GST. Particulars: both partners purified. On the technique in general: Immunoblotting shows a protein as a band on a membrane.

Series [2] deals with T2, GST-CsdA (Pestalotiopsis fici CGMCC3.15140, UniProt W3WSJ8 1-634).
T2 sequence: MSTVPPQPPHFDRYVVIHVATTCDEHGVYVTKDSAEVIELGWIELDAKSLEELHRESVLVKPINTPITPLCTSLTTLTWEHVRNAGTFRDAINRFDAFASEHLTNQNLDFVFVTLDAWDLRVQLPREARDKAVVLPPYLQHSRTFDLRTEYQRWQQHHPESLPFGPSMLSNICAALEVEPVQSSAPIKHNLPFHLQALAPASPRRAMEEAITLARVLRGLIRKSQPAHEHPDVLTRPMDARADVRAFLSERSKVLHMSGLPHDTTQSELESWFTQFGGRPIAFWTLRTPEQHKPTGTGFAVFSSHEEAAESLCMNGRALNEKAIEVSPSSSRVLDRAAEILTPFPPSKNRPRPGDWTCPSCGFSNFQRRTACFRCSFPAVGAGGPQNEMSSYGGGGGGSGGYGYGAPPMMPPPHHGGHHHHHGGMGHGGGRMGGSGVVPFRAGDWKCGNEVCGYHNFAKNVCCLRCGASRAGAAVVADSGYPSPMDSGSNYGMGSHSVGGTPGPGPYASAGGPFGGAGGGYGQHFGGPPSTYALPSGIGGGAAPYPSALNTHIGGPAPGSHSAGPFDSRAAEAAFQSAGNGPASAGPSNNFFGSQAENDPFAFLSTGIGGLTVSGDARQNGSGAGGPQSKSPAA
As to the kind of experiment: ITC; EMSA: Beyotime EMSA kit buffer, 20 min at 25 C, 6% polyacrylamide gel; ITC: 200 uM RNA into 50 uM CsdA, 25 C, buffer not stated (protein elution buffer 50 mM Tris, 150 mM NaCl, 10 mM GSH, pH 8.0). The note with it: protein: recombinant; tags: GST (N-terminal, pGEX-4T; pYSZL6). Background: In ITC the heat of successive injections is recorded.

In series [3] the target is T2, GST-CsdA. Put plainly: EMSA; EMSA: Beyotime EMSA kit buffer, 20 min at 25 C, 6% polyacrylamide gel; ITC: 200 uM RNA into 50 uM CsdA, 25 C, buffer not stated (protein elution buffer 50 mM Tris, 150 mM NaCl, 10 mM GSH, pH 8.0). Particulars: protein: recombinant; tags: GST (N-terminal, pGEX-4T; pYSZL6); label: biotin. Background: Mobility shift assays separate free from complexed probe on a gel.

B1: GST-CsdA (PFICI_10709), recombinant (natural protein, Pestalotiopsis fici, UniProt W3WSJ8 1-634, looked up)
chain: MSTVPPQPPHFDRYVVIHVATTCDEHGVYVTKDSAEVIELGWIELDAKSLEELHRESVLVKPINTPITPLCTSLTTLTWEHVRNAGTFRDAINRFDAFASEHLTNQNLDFVFVTLDAWDLRVQLPREARDKAVVLPPYLQHSRTFDLRTEYQRWQQHHPESLPFGPSMLSNICAALEVEPVQSSAPIKHNLPFHLQALAPASPRRAMEEAITLARVLRGLIRKSQPAHEHPDVLTRPMDARADVRAFLSERSKVLHMSGLPHDTTQSELESWFTQFGGRPIAFWTLRTPEQHKPTGTGFAVFSSHEEAAESLCMNGRALNEKAIEVSPSSSRVLDRAAEILTPFPPSKNRPRPGDWTCPSCGFSNFQRRTACFRCSFPAVGAGGPQNEMSSYGGGGGGSGGYGYGAPPMMPPPHHGGHHHHHGGMGHGGGRMGGSGVVPFRAGDWKCGNEVCGYHNFAKNVCCLRCGASRAGAAVVADSGYPSPMDSGSNYGMGSHSVGGTPGPGPYASAGGPFGGAGGGYGQHFGGPPSTYALPSGIGGGAAPYPSALNTHIGGPAPGSHSAGPFDSRAAEAAFQSAGNGPASAGPSNNFFGSQAENDPFAFLSTGIGGLTVSGDARQNGSGAGGPQSKSPAA
notes: open reading frame amplified from P. fici cDNA; CsdA said to contain 730 amino acids; GST-CsdA printed as 93.6 kDa; Printed as GST-CsdA; vector pGEX-4T (GST-tag); also called PfCsdA; GST-CsdA protein; source: E. coli BL21 (plasmid pYSZL6, pGEX-4T), purified (GST-tag resin)
With B1, the binding result in series [1] is reported as “binds”.
With GUCGGUAU (ssRNA) [1xGUCGGUAU RNA (ITC)], the Kd with GST-CsdA [2] is 19.7 ± 3.67 µM.
Take CCAGGGAGGUGAAGAAGUCGGUAUGUUUCACCAGAUGUGAU (ssRNA) [rsdA intron 2 5' splice site RNA (EMSA probe)]: the binding result in the series with GST-CsdA [3] is “binds”.
For GUCGGUAUCGUCGGUAUGGUCGGUAUUGUCGGUAU (ssRNA) [4xGUCGGUAU RNA (ITC)], the Kd with GST-CsdA [2] came out at 10.5 ± 5.12 µM.

Source of the values: paper PMC10645843, “Fungal secondary metabolism is governed by an RNA-binding protein CsdA/RsdA complex” (Nature Communications, 2023).
